Results: PMC3330151
Read-outs that look alike come from different tables or passages of the source.

Experiments:
Assay in all cases: EMSA
[1] = molecular target: T1, RecQ helicase (Escherichia coli, UniProt P15043 1-609)
[2] = molecular target: T1, RecQ helicase; remark: listed apart in the source
[3] = molecular target: T1, RecQ helicase; remark: listed apart in the source

T1 sequence (P15043 whole entry): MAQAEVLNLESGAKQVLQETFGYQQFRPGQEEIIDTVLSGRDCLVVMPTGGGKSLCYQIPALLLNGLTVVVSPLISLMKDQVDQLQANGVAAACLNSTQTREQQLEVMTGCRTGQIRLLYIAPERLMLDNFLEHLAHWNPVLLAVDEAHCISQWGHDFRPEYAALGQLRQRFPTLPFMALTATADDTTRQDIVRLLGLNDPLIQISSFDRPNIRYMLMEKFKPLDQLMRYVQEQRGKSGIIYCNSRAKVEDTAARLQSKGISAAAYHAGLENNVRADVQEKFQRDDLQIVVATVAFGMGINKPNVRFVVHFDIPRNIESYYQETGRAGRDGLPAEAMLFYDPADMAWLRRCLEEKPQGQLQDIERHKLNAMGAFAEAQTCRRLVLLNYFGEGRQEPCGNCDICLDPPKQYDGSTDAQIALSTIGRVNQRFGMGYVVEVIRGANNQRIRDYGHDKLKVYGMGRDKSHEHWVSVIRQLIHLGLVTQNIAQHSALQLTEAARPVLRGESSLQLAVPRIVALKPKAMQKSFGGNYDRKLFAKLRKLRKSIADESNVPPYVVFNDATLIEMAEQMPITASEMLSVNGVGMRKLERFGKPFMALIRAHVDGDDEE

| Binder | Kd [1] [nM] | Kd [2] [nM] | binding result [3] |
| --- | --- | --- | --- |
| dT52 (ssDNA) DNA: TTTTTTTTTTTTTTTTTTTTTTTTTTTTTTTTTTTTTTTTTTTTTTTTTTTT | 170 ± 10 | 150 ± 20 |  |
| TTTTTTTTTTTTTTTTTTTTTTTTT (ssDNA) [dT25] | 1000 ± 100 | 400 ± 60 |  |
| TTTTTT (ssDNA) [dT6] |  |  | no binding |
